The target in assay [1] is Myc-Pk (Drosophila Prickle) (UniProt A1Z6W3). The assay is described as follows: co-immunoprecipitation (IP α-Flag, IB α-Myc), western blot quantification. The settings on record: S2 cells; 6 independent replicates; parent: est. 18; read off a plot. Background: In western blotting, separated proteins are transferred to a membrane and probed.
In assay [2] the target is Dsh-GFP (Drosophila Dishevelled) (UniProt P51140). The assay is described as follows: co-immunoprecipitation (IP α-Flag, IB α-GFP), western blot quantification. The following applies: S2 cells, read off a plot.
Sequence of UniProt P51140 (P51140 whole entry, looked up): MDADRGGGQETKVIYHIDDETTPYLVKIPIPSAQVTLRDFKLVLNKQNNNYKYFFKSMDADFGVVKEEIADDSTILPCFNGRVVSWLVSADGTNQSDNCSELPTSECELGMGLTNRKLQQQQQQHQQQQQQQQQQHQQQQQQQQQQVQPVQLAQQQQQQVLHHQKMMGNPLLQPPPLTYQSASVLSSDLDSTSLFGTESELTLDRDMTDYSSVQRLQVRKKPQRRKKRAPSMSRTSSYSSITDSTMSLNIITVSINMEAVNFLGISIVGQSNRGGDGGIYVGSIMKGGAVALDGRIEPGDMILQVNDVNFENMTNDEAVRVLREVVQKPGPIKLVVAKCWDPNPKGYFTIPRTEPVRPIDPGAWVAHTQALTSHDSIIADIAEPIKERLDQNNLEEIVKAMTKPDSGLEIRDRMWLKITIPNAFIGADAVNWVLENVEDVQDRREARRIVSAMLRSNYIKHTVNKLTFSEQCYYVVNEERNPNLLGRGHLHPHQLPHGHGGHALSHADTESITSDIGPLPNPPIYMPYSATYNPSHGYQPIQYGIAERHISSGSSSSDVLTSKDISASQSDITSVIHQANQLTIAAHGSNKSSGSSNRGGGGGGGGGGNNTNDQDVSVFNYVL
The mark [3] stands for this setting: 6–7 replicates, parent: est. 12.

Sequence of UniProt A1Z6W3 (A1Z6W3 whole entry, looked up): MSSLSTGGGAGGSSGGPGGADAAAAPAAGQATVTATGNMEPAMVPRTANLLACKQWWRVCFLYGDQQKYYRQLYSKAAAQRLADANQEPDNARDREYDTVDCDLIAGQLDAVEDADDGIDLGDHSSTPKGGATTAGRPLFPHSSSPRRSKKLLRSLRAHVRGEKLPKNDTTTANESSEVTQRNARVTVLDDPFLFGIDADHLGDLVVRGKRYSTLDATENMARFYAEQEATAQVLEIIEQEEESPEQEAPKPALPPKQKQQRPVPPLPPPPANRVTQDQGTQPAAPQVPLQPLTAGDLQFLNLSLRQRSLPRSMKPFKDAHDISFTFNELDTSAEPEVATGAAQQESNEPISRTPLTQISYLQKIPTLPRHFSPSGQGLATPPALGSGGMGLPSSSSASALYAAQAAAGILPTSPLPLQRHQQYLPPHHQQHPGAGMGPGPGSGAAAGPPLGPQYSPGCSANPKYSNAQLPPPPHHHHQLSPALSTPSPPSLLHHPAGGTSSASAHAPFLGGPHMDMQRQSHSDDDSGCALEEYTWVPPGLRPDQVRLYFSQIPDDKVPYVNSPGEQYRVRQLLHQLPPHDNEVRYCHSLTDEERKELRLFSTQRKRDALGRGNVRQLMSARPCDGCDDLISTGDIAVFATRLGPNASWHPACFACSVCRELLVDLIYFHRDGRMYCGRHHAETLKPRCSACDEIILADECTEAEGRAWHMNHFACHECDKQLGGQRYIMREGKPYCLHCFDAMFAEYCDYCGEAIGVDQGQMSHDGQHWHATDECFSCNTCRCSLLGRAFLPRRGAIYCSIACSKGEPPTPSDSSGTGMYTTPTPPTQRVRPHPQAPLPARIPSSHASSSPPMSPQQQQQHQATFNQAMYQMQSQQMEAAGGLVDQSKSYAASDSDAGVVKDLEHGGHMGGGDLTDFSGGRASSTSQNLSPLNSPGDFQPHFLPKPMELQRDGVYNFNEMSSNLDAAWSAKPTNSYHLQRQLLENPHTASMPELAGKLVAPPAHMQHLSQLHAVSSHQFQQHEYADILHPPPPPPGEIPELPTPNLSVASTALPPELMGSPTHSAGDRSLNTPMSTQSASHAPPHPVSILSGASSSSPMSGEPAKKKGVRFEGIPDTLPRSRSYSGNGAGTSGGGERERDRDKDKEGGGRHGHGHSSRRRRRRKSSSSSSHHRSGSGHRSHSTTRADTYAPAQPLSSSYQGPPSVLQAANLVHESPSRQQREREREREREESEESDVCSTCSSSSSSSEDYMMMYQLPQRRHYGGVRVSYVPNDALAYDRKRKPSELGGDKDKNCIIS

On to “Vang-Flagx3 (Drosophila Van Gogh, wild type) F371A; K372A; Y374A”, for which the response in assay [1] amounted to 1 a.u; in assay [2] (setting [3]) it was 1.6 a.u.
On the same counts, the results for “Vang-Flagx3 (Drosophila Van Gogh, wild type) Y374A” are 2.5 a.u and 2.5 a.u.
On to “Vang-Flagx3 (Drosophila Van Gogh, wild type) V376A”, for which the response in assay [2] (6 replicates, parent: est. 9.6) is 2.5 a.u.
